The data set in a line: yeast display, Sf9 membrane polyspecificity reagent, FACS + sequencing; frameworks hold sequencing errors. The method, boiled down: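 A nanobody's polyreactivity label depends on the gate it was sorted from. Yeast display cells were stained with 10% biotinylated, detergent-solubilized Sf9 membrane reagent for 1 hour at 4 °C, enriched on streptavidin microbeads and sorted by FACS. The low and high (top ~1%) gates were set on anti-HA fluorescence for expression and streptavidin fluorescence for reagent binding.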
With “QVQLVESGGGLVQAGGSLRLSCAASGIIFWYYAMGWYRQAPGKERELVAAINSGGSTNYADSVKGRFTISRDNAKNTVYLQMNSLKQEDTAVYYCAARYRWPIPGTQYEYWGQGTQVTVSS”, the “polyreactivity (PSR sort gate)” value is reported as “low polyreactivity”.
Turning to “QVQLVESGGGLVQAGGSLRLSCAASGRTFRGYAMGWYRQAPGKERELVAAITWRGGSTKYADSVKGRFTISRDNAKNTVYLKMNSLKPEDTAVYYCAAARHYLTFWGQGSQVTVSS”, the “polyreactivity (PSR sort gate)” value is listed as “high polyreactivity”.
The value for “QVQLVESGGGLVQAGGSLRLSCAASGRIFTIYAMGWYRQAPGKERELVARITRGTSTYADSVKGRFTISRDNAKNTVYLQMNSLKPEDTAVYYCAADPTDTSLGDYWGQGTQVTVSS” was “high polyreactivity”; that for “QVQLVESGGGLDQAGGSLRLSCAASGRIFCQYAMGWYRQAPGKERELVAAMSRSGGSTYYAHSVKGRFTISRDNAKNTVYLQMTSLKPEDTAVYYCAARKASGDPGSAGRPEYYYWGQGNQVTVSS” was “high polyreactivity”.
Take “QVQLVDSGGGLVQAGGSLRLSCAASGFIFLNNAMGWYRQAPGKERELVAAITWSGGSTYYADSVKGRFTISRDNAKNTVYLQMNSLKPEDTAVYYCAADGWLYYGVGYWGQGTQVTVSS”: the “polyreactivity (PSR sort gate)” value is on record as “low polyreactivity”.
The result for “QVQLVESGGGLVQAGGSLRLSCAASGSIFFSNAMGRYRQAPGKERELVAGIRSGGITNYADSVKGRFTISRDNAKNTVYLQMNSLKPEDTAVYYCNADLAPSTPYFYYFPVRRDYWGQGTQVTVSS” reads “low polyreactivity”; that for “QVQLVESGGGLVQAGGSLRLSCAASGSIFYPYAMGWYRQAPGKERELVAAIRNGGSTYYADSVKGRFTISRDNAKNTVYLHMNSLKPEDTAVYYCAASVRRRHPFEYWGQGTQVTVSS”, “high polyreactivity”.
The result for “QVQLVESGGGLVQAGGSLRLSCAASGRIFDTYAMGWYRQAPGKERELVAAITRRGGSTYYADSVKGRFTISRDNAKNTVYLQMNSLKPEDSAVYYCAKSLVNRHYDYWGQGTQVTVSS” reads “low polyreactivity”.
On to “QVQLVETGGGLVQAGGSLRLSCAASGSTMAYYTMGWYRQEPGKEREFVASINWGGTTTYYADSVKGRFTISRDNAKNTVYLQMNSLKPEDTAVYYCAALGLRWGRSGYYYEYYYWGQGTQVTVSS”, for which the “polyreactivity (PSR sort gate)” value is “high polyreactivity”.
The value for “QVQLVESGGGLVQAGGSLRLSCAASGIIFSKYAMGWYRQAPGKERELVARISWRGGDTYYADSVKGRFTISRDNAKNTVYLQMNSLKPEDTAVYYCNARIWGRYFSYTRFDYWGQGTQVTVSS” was “high polyreactivity”.
Turning to “QVQLVESGGGLLQAGGSLRLSCAASGGTFSLNVMGWYRQAPGKEREFVATITYSGGSTYYADSVKGRFTISRDNAKNTVYLQMKSLKPEDTAVYYCAASFTYSQVTEPYGYWGQGSQVTVSS”, the “polyreactivity (PSR sort gate)” value is given as “low polyreactivity”.
With “QVQLVESGGGLVQEGGSLRLSCAASGFIFDGNAMGWYRQAPGKERELVAAMSWDGGTYYADSVKGRFTISRDNAKNTVYLQMNSLKPEDTAVYYCAAEQTQLYSFGWDEYWGQGTQVTVSS”, the “polyreactivity (PSR sort gate)” value is given as “low polyreactivity”.
Regarding “QDQLVESGGGIVQAGGSLRLSCAASGRTFTAYAMGWYRQAPGKERELVAAISSSGGSTYYADSEKGRFTISRDNAKNTVYLQMNSLKPDDTAVYYCAALGGYRYGYDYWGQGTQVTVSS”, the “polyreactivity (PSR sort gate)” value is listed as “high polyreactivity”.
Take “QVQLVESGGGLVQAGGSLRLSCAASGRIFVWNAMGWYRQAPGKERELVAAITSSGGNTYYADSVKGRFTISRDNAKNTVYLQMNSLKPEDTAVYYCAARSSSRTQATTRYGYWGQGTQVTVSS”: the “polyreactivity (PSR sort gate)” value is recorded as “high polyreactivity”.
The result for “QVQLVESGGGLVQAGGSLRLSFAASGFTFYPYTKGWYRQAPGKEREFVAAISWNCGSTYYADSVKGRFTISRDNAKHTVYLQMNRLKPEDTAVYYCAADFDASRYEYWGQGTQVTVSS” reads “low polyreactivity”; that for “QVQLVESGGGLVQAGGSLRLSCAASGSIFAYNDMGWYRQAPGKERELVAAIRNGGRTNYADSVKGRFTISRDNAKNTVYLQMNSLKPEDTAVDYWAALNYYGSDYWGQGTQVTVSS”, “high polyreactivity”.
For “QVQLVETVVGLVQAGGSLRLSCAASGSIFGFYDMGWYRQAPGKERELVAVISVSDGSTYYADSVKGRFTISRDNAKNTVYLQMNSLKAEDTAVYYCAATPRGSYGYYYWGQGTQVTVSS”, the “polyreactivity (PSR sort gate)” value is listed as “low polyreactivity”.
On to “QVQLVESGGGLVQAGGSLRLSCAASGFIFDQNAMGWYRQAPGKERELVAAITRSGGCTYYADSVKGRFTISRDNAKNTVYLQMYSLNPEDTAVYYCAADLSYRGATRGDYYWGPGTQVTVSS”, for which the “polyreactivity (PSR sort gate)” value is recorded as “low polyreactivity”.
Take “QVQLVESGGGLVQAGGSLRLSCAASGRTFGNYAMGWYRQAPGKERELVAAISSGRSTNYADSVKRRFTISRDNGKNTVYLQMNSLKPEDTAVYYCNADWGFPDVKETGVRFDYWGQGTQVTVSW”: the “polyreactivity (PSR sort gate)” value is recorded as “low polyreactivity”.
On to “QVQLVESGGGLVQAGGSLRLSCAASGRIFIVYVMGWYRQAPGKERELVAGITLSGGNTYYADSVKGRFTISRDNAKNTVYLQMNSLKPEDTAVYYCAAGWYGIEMDYWGQGTQVTVSS”, for which the “polyreactivity (PSR sort gate)” value was “high polyreactivity”.
The value for “QVQLVESGGGLVQAGGSLRLSCAASGSIFSRNAMGWYRQAPGKERELVAAITGSGSSTYYADSVKGRFTISRDNAKNTVYLQMNSLKPEDSAVYYCNAARVYLSEWGQGTQVTVSS” was “high polyreactivity”; that for “QVQLVESGGGLVQAGGSLRLSCAASGSTFPYNAKGWYRQAPGKERELVAAIDYSGGSTYADSVKGRFTISRDNAKNTVYLQMNSLKPEDTAVYYCAYCRVVVYDVSGDDEDYDYWRQGTQVTVSS” was “low polyreactivity”.
The value for “QVQLVESGGGLVQAGGSLRLSCAGSGFTFGIYAMGSDRQAPGKERELVAAISSSGGSTYYADSVKGRFTISRDNAKNTVYLQMNSLKPEDTAVYYCAAVNSRRRYWYDYWGQGTQVTVSS” was “high polyreactivity”; that for “QVQLVESGGGLVQAGGSLRLSCAASGSTRRYAMGWYRQAPGKERELVAAISSRGGSTYYADSVKGRFTISRDNAKNTVYLQMNSLKPEDTAVYYCAARTTRGPTFGYWGQGTQVTVSS” was “high polyreactivity”; that for “QVQLVESGGGLVQAGGSLRLSCAASGFIFSSNAMGWYRQAPGKERELVARITWSDGSTYYADSVKGRFTISRDNAKNTVYLQMNSLKPEDTAVYYCAKGRDATHYEYYLYSMDYWGQGTQVTVSS” was “low polyreactivity”.
The value for “QVQHVESRGGLVQAGGSLRLSCAASGSIFGYYGMGWYRQAPGKERELVATITSGGSTNYADSVKGRFTISRDNAKNTVYLQMNSLKPEDTAVYYCARQYGYQPERYGYWGQGTQVTVSS” was “low polyreactivity”.
Take “QVQLVESGGGLVQAGCSLRLSCAASGSTFFSNAMGWYRQAPGKFRELVAGITFSGGSTYYADSVKGRFTISRDYAKNTVFLQMNSLKPEDTAVYYCAASPPYKLVWWRRMDYWGQGTQVTVSS”: the “polyreactivity (PSR sort gate)” value is listed as “low polyreactivity”.
As to “QVQLVESGGGLVQAGGSLRLSCAASGSTFPGYAMGWYRQAPGKERELVAAISTSGGRTYYADSVKGRFTISRDNAKNTVYLQMNSLKPEDTAVYYCAADASTWYTEEYWGQGTQVTVSS”, the “polyreactivity (PSR sort gate)” value was “low polyreactivity”.
The value for “HFQLVESGGRLVQAGGSIRLSCAASGRIFRPNAMGWYRQAPRKERQLVAAISYSGATTYYADSVKGRFTISRDNEKNTVYLQMNSLKPEDTAVYYCAACGTSAKEFGYWGQGTQVTVSS” was “low polyreactivity”.
The result for “QVQLVESGGGLVQAGGSLRLSCAASGFIFWDYAMGWYRQAPGKERELVAAISDSGGDTYYADSVKGRFTISRDNAKNTVYFQMNSLKPEDTAVYYCAADVELWVFRGQQYDYWGQGTQVTVSS” reads “low polyreactivity”; that for “QVQLEESGGGLVQAGGSLRLICAASGRTCGSNTMGWYRQAPGKERELVAASTISCGSTYYADSVKGRFTFSRDNAKNTVYLQMNSLKPDVTALDYCATRLWGQGGGRTTSYMYYWGQGTQVTVSS”, “high polyreactivity”; that for “QVQLVESGGGLVQAGGSLRLSCAASGSIFTSYAVMGWYRQAPGKERELVAVITGGGITTYADSVKGRFTISRDNAKNTVYLQMNSLKPEDTAVYYCATDGWYHSEYDYWGQGTQVTVSS”, “low polyreactivity”.
The value for “QVQLVESGGGLVQAGGSLRLSFAASGLIFDSNAMGWYRQAPGKERELVASTYYADSVKGRFTISRDNAKNTVYLQMNSLKPEDTAVYYCATTSVYKSVTYDYWGQGTQVTVSS” was “low polyreactivity”; that for “QVQLVDSGGGIVQAGGSLRLSCAASGSTFYSYAMGWYTQAPGKERELVAAINRDGVSTYYSDSVKGRFTISRYNAKNTVYLLMNSLKPEDTAVYYCNARHQTLRSYRYDYWGQGTQVSVSS” was “low polyreactivity”.
For “QVQLVESGGGLVQAGGSLRLSCAASGSIFLVYAMGWYRQAPGKERELVAVIRWRDGSTYYADSVKGRFTISRDNAMNTVYLQMNSLKPEDTAVYYCAADGVIFEYDYWGQGTQVTVSS”, the “polyreactivity (PSR sort gate)” value was “low polyreactivity”.
For the sequence “QVQLVESGGGLVQAGGSLRLSCAASGFIFSFDNAMGWYRQAPGKERELVAAISSGTTTHYADSVKGRFTISRDNAKNTVYLQMNSLKREDTAVYYCAAGTATDVASIGATKDYDYWGQGTQGTVSS”, the “polyreactivity (PSR sort gate)” value is “low polyreactivity”.
As to “QVQLVESGGGLVQAGGSLRLSCAASGSIFTINAMGWYRQAPGKERELVAAISFSGGRTYYADSVKGRFTISRDNAKNTVYLQMNSLKPEDTAVYYCAAPFYYYGVRFDYWGQGTQVTVSS”, the “polyreactivity (PSR sort gate)” value is listed as “high polyreactivity”.
For “QVQLVESGGGLVQAGGSLRLSCAASGFTLYSNTMGWYRQATGKERELVAAINYSGGSTYYADSVKGRFTISRDNAKNTVYLQMNSLKPEDTPVYYCATDLHWLVTKYGYWGQGTQVTVSS”, the “polyreactivity (PSR sort gate)” value is listed as “low polyreactivity”.
For “QVQLEETGGRLVQAGARLRLSCDASGYIFFFYAMGWYRHAPGKERELDASITYRGGSTYYADSVKGRFTLSRDYAKNTVYLQINSLKPEDTAVYYCIVDGGGPLGPHGFPFDYWGQGTQVTVSS”, the “polyreactivity (PSR sort gate)” value was “low polyreactivity”.
The value for “QDQLVESGGGLLQAGGSLRLSCAASGFTFSIYAMGWYRQAPGKERELVAAISSSSSTNYADSVKVRFTISRDNAKNTVYLQMNSLKPEDTEVYYCNADNVGNTFTWYDYWGQGTQVTVSS” was “low polyreactivity”; that for “QVQIVESGGGLVQAGGSLRLSCAASGSIFRSYAMGWYRQAPGKERELVAAITSSSGSTYYADSVKGRFTISRDNAKNTVYLQMNSLKPEDTAVYSCAAGSPRRYRYDYWGQGTQVTVSS” was “high polyreactivity”.

(Values after the nanobody polyreactivity screen of Harvey et al. (2022).)
